In experiment [1] the target is T1, mouse BTLA expressed on cells (mouse, UniProt Q7TSA3 30-306).
T1 construct: whole, on cells; the GFP part is not described further; also called mBTLA
T1 sequence (looked up): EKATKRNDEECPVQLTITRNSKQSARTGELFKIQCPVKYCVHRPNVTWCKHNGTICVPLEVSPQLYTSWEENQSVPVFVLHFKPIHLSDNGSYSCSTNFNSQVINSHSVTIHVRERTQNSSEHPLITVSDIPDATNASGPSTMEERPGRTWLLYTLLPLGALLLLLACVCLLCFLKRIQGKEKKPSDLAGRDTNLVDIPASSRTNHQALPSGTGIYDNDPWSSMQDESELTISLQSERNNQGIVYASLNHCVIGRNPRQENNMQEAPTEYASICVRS
The experiment is described as follows: flow cytometry, graded hHVEM-Fc on cells expressing mouse BTLA (FIG. 3A).

The target in experiment [2] is T2, full length human LIGHT expressed on EL4 cells (human, UniProt O43557 1-240).
T2 construct: whole, on cells; also called EL4-hLIGHT; hLIGHT-EL4 cells
Nature of the experiment: flow cytometry saturation binding, Fc fusion on EL4 cells expressing human LIGHT. On the technique in general: Flow cytometry measures light scatter and fluorescence of single cells or particles in a stream.

Experiment [3] deals with T3, human BTLA expressed on cells (human, UniProt Q7Z6A9 31-289).
T3 construct: whole, on cells; also called hBTLA
The experiment is described as follows: flow cytometry saturation binding, Fc fusion on cells expressing human BTLA (FIG. 3A).

Experiment [4] addresses T3, human BTLA expressed on cells. The experiment is described as follows: flow cytometry saturation binding, Fc fusion on cells expressing human BTLA (FIG. 3B).
Experiment [5] concerns the target T1, mouse BTLA expressed on cells. The experiment is described as follows: flow cytometry saturation binding, Fc fusion on cells expressing mouse BTLA (FIG. 3B).

T2 sequence (O43557 whole entry): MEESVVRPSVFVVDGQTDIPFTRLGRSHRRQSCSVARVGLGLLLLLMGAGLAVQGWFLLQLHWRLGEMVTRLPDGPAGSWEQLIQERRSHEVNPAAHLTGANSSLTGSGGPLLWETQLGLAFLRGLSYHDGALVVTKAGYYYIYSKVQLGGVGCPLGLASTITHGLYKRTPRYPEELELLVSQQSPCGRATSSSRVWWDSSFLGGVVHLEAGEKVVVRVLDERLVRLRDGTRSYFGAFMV

B1: human HVEM-Fc (Fc fusion, UniProt Q92956 39-202, looked up)
chain: LPSCKEDEYPVGSECCPKCSPGYRVKEACGELTGTVCEPCPPGTYIAHLNGLSKCLQCQMCDPAMGLRASRNCSRTENAVCGCSPGHFCIVQDGDHCAACRAYATSSPGQRVQKGGTESQDTLCQNCPPGTFSPNGTLEECQHQTKCSWLVTKAGAGTSSSHWV
modifications: in the FIG. 3H assay biotinylated with NHS-PEO4-Biotin, 2 biotin molecules per HVEM-Fc (sites not given)
notes: extracellular domain; Ecto domain of the TNFR fused to Fc of human IgG1; also called hHVEM-Fc; hHVEM:Fc; not shown: Fc region of human IgG1
With B1, the binding result in experiment [1] is listed as “no binding”. In addition, the equilibrium dissociation constant (Kd) (in general, the equilibrium constant for the complex coming apart) in experiment [2] came out at 0.011 µM; in experiment [3] it was 0.112 µM.

B2: mouse HVEM-Fc (Fc fusion, UniProt Q80WM9 39-206, looked up)
chain: QPSCRQEEFLVGDECCPMCNPGYHVKQVCSEHTGTVCAPCPPQTYTAHANGLSKCLPCGVCDPDMGLLTWQECSSWKDTVCRCIPGYFCENQDGSHCSTCLQHTTCPPGQRVEKRGTHDQDTVCADCLTGTFSLGGTQEECLPWTNCSAFQQEVRRGTNSTDTTCSSQ
notes: extracellular domain; Expressed in insect cells (baculovirus); also called mHVEM-Fc; mHVEM:Fc; not shown: Fc region of human IgG1
Consider B2, for which the Kd was 0.027 µM in experiment [4] and 0.024 µM in experiment [5].

(Values after patent publication US8349320 (LA JOLLA INSTITUTE FOR ALLERGY AND IMMUNOLOGY, dated 2013).)
